Literature values as cited in paper PMC7680388.

Target: Ubiquitin (Homo sapiens) (UniProt P0CG48)

Sequence of Rpn13 (Q16186 2-407): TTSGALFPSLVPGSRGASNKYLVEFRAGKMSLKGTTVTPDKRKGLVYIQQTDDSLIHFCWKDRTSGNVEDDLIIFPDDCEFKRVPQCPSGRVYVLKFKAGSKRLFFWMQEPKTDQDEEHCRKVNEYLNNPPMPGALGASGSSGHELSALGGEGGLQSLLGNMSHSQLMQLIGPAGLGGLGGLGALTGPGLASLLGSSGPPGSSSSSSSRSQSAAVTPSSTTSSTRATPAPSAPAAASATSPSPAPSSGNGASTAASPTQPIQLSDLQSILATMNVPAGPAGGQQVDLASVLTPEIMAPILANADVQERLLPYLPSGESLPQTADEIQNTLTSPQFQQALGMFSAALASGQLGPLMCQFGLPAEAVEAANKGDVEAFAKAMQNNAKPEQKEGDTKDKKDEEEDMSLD

- Kd: 40 µM
Substance: Rpn13 (from UniProt Q16186)
